This passage reports IC50 results from patent US20210380691A1 (published 2021).

As usually defined, the IC50 is the midpoint of a concentration-inhibition curve.

Experiment in all cases: ELISA (A450)
Background: In an ELISA, binding on a coated surface is turned into a signal by an enzyme label.

One assay deals with T1, human NKp30 (human, UniProt O14931 19-135).
T1 chain: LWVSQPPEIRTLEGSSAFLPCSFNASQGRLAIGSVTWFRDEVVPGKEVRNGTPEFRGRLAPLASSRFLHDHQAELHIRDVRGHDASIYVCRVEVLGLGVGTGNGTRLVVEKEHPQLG

A further assay has as its target T2, cynomolgus NKp30 (cynomolgus, UniProt P61483 19-135).
T2 chain: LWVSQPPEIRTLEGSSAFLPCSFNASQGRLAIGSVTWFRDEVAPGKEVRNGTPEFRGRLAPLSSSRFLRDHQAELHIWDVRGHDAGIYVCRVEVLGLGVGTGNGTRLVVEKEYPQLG

A further assay deals with Rat NKp30.

B1: hamster anti-NKp30 antibody 9D9 (antibody, V domains shown)
VH: QIQLQESGPGLVKPSQSLSLSCSVTGFSINTGGYHWNWIRQFPGKKVEWMGYIYSSGTTKYNPSLKSRISITRDTSKNQFFLQLNSVTTEDTATYYCARGDWHYFDYWGQGTMVAVSS
VL: SYTLTQPPLVSVALGQKATIICSGENLSDKYVHWYQQKPGRAPVMVIYENDKRPSGIPDQFSGSNSGNIATLTISKAQAGYEADYYCHCWDSTNSAVFGSGTHLTVL
For the molecule B1, the IC50 in the assay with human NKp30 and in the assay with cynomolgus NKp30 was 0.89 nM each time.

B2: 9D9-1C1 (antibody, V domains shown)
VH: QIQLQESGPGLVKPSQSLSLSCSVTGFSINTGGYHWNWIRQFPGKKVEWMGYIYSSGTTKYNPSLKSRISITRDTSKNQFFLQLNSVTTEDTATYYCARGDWHYFDYWGQGTMVAVSS
VL: SYTLTQPPLVSVALGQKATIICSGENLSDKYVHWYQQKPGRAPVMVIYENDKRPSGIPDQFSGSNSGNIATLTISKAQAGYEADYYCHCWDSTNSAVFGSGTHLTVL
For the molecule B2, the IC50 with Rat NKp30 stood at 0.32 nM.
